The assay addresses Drug A. Briefly: cell-based or functional assay.

Values joined by “and” are separate entries in the source; they are usually repeats but may differ in a detail not shown here. Equal values may be shown once.

B1: Fab fragment of Antibody A (Fab, V domains shown)
VH: DVQLVESGGGVVRPGESLRLSCAASGFSFSSYAMNWVRQAPGEGLEWVSRINSGGGGTDYAESVKGRFTISRDNSENTLYLQMNSLRAEDTAVYYCAKQYDWNSFFDYWGLGALVTVSS
VL: ETVLTQSPATLSVSPGERATLSCRASQTVGSKLAWHQQKPGQAPRLLIYDATNRATGISDRFSGSGSGTDFTLTISSLQTEDSAVYYCQQYYYWPPYRFGGGTKVEIK
B1 showed a hemagglutination of Drug A-coated erythrocytes with anti-IgG; molar excess of Fab that prevented it (fold molar excess relative to Drug A) of 2500.

B2: Fab fragment of Antibody C (Fab, V domains shown)
VH: DVQLVESGGGVVRPGESLRLSCEASGFTFSSNAMSWVRQAPGKGLEWVAGISSGSDTYYGDSVKGRLTISRDNSKNILYLQMNSLTAEDTAVYYCARETWNHLFDYWGQGTLVTVSS
VL: SYELTQPPSVSVSPGQTARITCSGGSYSSYYYAWYQQKPGQAPVTLIYSDDKRPSNIPERFSGSSSGTTVTLTISGVQAEDEADYYCGGYDQSSYTNPFGGGTKLTVL
As for B2, the hemagglutination of Drug A-coated erythrocytes with anti-IgG; molar excess of Fab that prevented it (fold molar excess relative to Drug A) was 200 and 400.

For the origin of these results see patent US20200400662A1.
